What was measured:
[1] = biological target: TLR7 expressed in HEK293 cells (UniProt Q9NYK1); assay: cell-based or functional assay
[2] = biological target: TLR9 expressed in HEK293 cells (UniProt Q9NR96); assay: cell-based or functional assay
Chain of TLR9 expressed in HEK293 cells (Q9NR96 26-1032 limits assumed): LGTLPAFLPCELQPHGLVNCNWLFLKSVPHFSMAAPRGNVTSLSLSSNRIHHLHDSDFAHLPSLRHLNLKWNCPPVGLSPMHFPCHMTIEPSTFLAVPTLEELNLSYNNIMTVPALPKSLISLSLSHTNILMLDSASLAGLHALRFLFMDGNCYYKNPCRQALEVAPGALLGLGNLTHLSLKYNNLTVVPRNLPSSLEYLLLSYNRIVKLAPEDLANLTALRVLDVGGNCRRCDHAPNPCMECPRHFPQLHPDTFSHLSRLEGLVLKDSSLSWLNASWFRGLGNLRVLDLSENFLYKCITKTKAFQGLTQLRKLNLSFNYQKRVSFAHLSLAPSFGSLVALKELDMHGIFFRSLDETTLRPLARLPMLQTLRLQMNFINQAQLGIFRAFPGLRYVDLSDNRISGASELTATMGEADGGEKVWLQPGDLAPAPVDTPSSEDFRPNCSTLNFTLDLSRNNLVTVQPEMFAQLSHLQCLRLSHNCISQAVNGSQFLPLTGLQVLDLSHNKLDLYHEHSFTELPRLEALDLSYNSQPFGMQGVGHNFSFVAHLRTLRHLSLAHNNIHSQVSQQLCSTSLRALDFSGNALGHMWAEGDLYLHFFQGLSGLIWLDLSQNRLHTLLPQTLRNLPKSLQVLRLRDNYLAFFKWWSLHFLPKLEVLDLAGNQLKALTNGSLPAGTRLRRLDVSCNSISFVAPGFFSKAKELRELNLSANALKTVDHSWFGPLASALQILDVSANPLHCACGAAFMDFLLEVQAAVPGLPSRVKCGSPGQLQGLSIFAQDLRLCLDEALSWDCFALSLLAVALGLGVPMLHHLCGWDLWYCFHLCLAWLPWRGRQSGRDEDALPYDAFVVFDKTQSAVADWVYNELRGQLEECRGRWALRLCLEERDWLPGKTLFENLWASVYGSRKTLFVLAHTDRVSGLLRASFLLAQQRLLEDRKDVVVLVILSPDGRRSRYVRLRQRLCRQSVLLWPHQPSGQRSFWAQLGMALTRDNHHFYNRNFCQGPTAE

Chain of TLR7 expressed in HEK293 cells (Q9NYK1 27-1049 limits assumed): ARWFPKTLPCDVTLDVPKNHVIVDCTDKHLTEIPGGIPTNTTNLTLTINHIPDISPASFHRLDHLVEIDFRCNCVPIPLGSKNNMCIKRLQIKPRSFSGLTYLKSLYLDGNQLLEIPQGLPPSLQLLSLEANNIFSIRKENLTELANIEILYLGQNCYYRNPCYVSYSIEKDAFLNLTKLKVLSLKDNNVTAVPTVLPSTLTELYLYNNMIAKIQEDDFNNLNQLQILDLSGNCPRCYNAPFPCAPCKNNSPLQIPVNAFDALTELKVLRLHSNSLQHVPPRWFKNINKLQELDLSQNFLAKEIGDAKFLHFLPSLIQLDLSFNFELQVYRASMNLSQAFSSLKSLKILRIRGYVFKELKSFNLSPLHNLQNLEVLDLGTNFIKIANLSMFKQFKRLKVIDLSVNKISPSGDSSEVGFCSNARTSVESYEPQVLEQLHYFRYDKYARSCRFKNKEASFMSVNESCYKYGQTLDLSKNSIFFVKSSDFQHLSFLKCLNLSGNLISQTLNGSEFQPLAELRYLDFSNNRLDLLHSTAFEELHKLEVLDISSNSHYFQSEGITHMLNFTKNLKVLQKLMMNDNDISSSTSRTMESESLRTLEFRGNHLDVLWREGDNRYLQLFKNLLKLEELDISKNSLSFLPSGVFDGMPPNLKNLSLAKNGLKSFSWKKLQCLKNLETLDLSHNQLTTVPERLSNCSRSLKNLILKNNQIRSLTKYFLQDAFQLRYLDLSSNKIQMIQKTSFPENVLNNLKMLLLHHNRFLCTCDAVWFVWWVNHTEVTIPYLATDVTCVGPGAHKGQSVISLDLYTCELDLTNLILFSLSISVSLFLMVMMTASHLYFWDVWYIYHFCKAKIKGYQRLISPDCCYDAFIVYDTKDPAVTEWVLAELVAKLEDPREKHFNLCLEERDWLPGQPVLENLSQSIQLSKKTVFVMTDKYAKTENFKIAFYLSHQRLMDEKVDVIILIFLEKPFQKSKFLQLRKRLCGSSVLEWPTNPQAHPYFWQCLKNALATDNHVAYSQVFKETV

NF-κB activation (luciferase reporter) in HEK293 cells expressing TLR7 and TLR4, stimulated with R848 (fold reduction) [1]: 2
NF-κB activation (luciferase reporter) in HEK293 cells expressing TLR9, stimulated with CpG DNA (fold reduction) [2]: 5 to 10
Substance: recombinant human Cpn10 with an N-terminal Alanine residue (from UniProt P61604 2-102)
